The values that follow come from patent US20160311882A1, “Novel Compound for Treatment of Severe Hypoglycemia” (ELI LILLY AND COMPANY, priority 2013, published 2016).

Non-standard residues stand in square brackets, D forms with d. No end group written: not given here. Aib = CC(C)(N)C(=O)O

For assay [1], the target named is T1, human glucagon receptor (hGR) (human, UniProt P47871 26-477). As to the kind of experiment: cell-based or functional assay.
In assay [2] the target is T2, human glucose-dependent insulinotropic peptide receptor (GIP-R) (human, UniProt P48546 22-466).
T2 construct: whole, on cells; Assay used crude plasma membranes of the expressing CHO-S cells; also called human GIP-R; hGIP-R
T2 sequence (looked up): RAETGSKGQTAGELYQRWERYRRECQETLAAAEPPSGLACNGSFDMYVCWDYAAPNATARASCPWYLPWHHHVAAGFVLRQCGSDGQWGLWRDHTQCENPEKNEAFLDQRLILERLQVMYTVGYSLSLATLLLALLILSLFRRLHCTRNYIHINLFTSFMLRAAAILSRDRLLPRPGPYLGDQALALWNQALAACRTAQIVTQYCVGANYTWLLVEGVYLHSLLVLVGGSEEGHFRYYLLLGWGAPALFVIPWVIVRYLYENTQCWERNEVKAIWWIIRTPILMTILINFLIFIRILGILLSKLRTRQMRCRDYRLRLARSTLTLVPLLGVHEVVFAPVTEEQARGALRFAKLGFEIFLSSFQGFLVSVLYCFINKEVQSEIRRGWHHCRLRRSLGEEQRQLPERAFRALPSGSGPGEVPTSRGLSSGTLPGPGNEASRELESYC
Nature of the assay: SPA competition against radioiodinated GIP on CHO-S human GIP-R membranes, Cheng-Prusoff.

In assay [3] the target is T1, human glucagon receptor (hGR). Nature of the assay: SPA competition against 125I-labelled glucagon on 293HEK hGR membranes, Cheng-Prusoff. How it is done: Plates are sealed, mixed end over end, and read with a MicroBeta® scintillation counter after 12 hours of settling time at room temperature.
Assay [4] deals with T3, mouse glucagon receptor (mGR) (mouse, UniProt Q61606 27-485).
T3 construct: whole, on cells; Assay used crude plasma membranes of the expressing 293HEK cells
T3 sequence (Q61606 27-485): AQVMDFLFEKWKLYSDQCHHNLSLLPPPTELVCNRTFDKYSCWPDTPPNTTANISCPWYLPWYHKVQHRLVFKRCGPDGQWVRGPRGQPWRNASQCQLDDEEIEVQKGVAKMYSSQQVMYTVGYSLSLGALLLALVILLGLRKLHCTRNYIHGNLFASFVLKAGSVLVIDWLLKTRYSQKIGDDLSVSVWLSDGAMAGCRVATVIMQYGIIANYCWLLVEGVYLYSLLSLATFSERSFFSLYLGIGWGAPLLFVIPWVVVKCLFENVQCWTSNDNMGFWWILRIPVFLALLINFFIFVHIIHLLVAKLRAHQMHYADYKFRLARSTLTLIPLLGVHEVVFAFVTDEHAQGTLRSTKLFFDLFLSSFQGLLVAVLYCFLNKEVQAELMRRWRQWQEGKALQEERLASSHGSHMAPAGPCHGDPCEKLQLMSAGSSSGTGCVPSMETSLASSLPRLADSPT
Nature of the assay: SPA competition against 125I-labelled glucagon on 293HEK mGR membranes, Cheng-Prusoff.

Assay [5] concerns the target T4, human glucagon-like peptide 1 receptor (hGLP-1R) (human, UniProt P43220 24-463).
T4 construct: whole, on cells; Assay used crude plasma membranes of the expressing 293HEK cells
Nature of the assay: SPA competition against 125I-labelled GLP-1 amide on 293HEK hGLP-1R membranes, Cheng-Prusoff.

T1 sequence (P47871 26-477): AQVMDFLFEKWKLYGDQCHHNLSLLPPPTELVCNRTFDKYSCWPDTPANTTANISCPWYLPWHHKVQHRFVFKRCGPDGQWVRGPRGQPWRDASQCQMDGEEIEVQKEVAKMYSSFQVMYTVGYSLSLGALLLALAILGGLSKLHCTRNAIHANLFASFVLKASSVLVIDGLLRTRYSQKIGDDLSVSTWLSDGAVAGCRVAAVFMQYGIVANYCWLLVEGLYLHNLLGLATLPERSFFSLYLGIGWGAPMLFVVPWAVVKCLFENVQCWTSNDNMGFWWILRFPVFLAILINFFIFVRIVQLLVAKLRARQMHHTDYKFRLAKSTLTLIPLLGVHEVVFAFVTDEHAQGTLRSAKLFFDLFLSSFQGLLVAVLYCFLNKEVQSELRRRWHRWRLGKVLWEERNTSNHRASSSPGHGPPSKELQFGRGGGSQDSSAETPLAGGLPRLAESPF

B1: compound of SEQ ID NO: 2 (peptide)
peptide: YSQGTFTSDYSKYLD[Aib]KKAQEFVEWLLKTGPSSGAPPKSK-NH2
modifications: also: acetate salt
notes: Synthetic peptide made on Rink amide resin; acetate salt
As usually defined, the Ki is a dissociation constant, usually derived from enzyme kinetics or from competition with a known ligand. A high value points to lower affinity. For the molecule B1, in assay [1], the “EC50, hGR stimulated cAMP functional assay (HTRF, hGR-HEK293 cells)” value stood at 0.0203 nM. Besides, the Ki in assay [2] was 532 nM; in assay [3] it was 0.286 nM; in assay [4] it was 1.82 nM; in assay [5], 2540 nM.
